Tests used:
MutL WT [1] = target: T1, MutL WT (Escherichia coli, UniProt P23367 1-615); experiment: cryo-EM structure (3.7 A); 3 mM AMPPNP, 5 mM Mg2+; FA: 20 mM HEPES pH 7.5, 150 mM NaCl, 5 mM MgCl2, 0.08% Tween 20, 20% glycerol, 2 mM DTT, 5 nM DNA, 25 C; BLI: 25 mM HEPES pH 7.5, 150 mM NaCl, 5 mM MgCl2, 2 mM; conditions: protein: recombinant; (HisTrap purified); chain copies: 2; 21 bp duplex, 5' overhang 21 nt on template
MutL WT [2] = target: T1, MutL WT; experiment: fluorescence anisotropy; AMPPNP (3 mM; Fig 3C legend 1 mM); FA: 20 mM HEPES pH 7.5, 150 mM NaCl, 5 mM MgCl2, 0.08% Tween 20, 20% glycerol, 2 mM DTT, 5 nM DNA, 25 C; BLI: 25 mM HEPES pH 7.5, 150 mM NaCl, 5 mM MgCl2, 2 mM; conditions: protein: recombinant; (HisTrap purified); chain copies: 2; label: 5'-FAM on primer S8; 15 bp duplex, 5' overhang 16 nt on template (recessed primer 3' end)
MutL H319A = MutL H319A (Escherichia coli, UniProt P23367 1-615, H319A); experiment: fluorescence anisotropy; AMPPNP (1 mM, Fig 3C); FA: 20 mM HEPES pH 7.5, 150 mM NaCl, 5 mM MgCl2, 0.08% Tween 20, 20% glycerol, 2 mM DTT, 5 nM DNA, 25 C; BLI: 25 mM HEPES pH 7.5, 150 mM NaCl, 5 mM MgCl2, 2 mM; conditions: protein: recombinant; (HisTrap purified); chain copies: 2; label: 5'-FAM on primer S8; 15 bp duplex, 5' overhang 16 nt on template (recessed primer 3' end)
MutL H270A = MutL H270A (Escherichia coli, UniProt P23367 1-615, H270A); experiment: as above; conditions: protein: recombinant; (HisTrap purified); chain copies: 2; label: 5'-FAM on primer S8; 15 bp duplex, 5' overhang 16 nt on template (recessed primer 3' end)
MutL H270A+H319A = MutL H270A+H319A (Escherichia coli, UniProt P23367 1-615, H270A;H319A); experiment: as above; conditions: protein: recombinant; (HisTrap purified); chain copies: 2; label: 5'-FAM on primer S8; 15 bp duplex, 5' overhang 16 nt on template (recessed primer 3' end)
MutL WT [3] = target: T1, MutL WT; experiment: fluorescence anisotropy; 3 mM ATP (Table 2 gives 0.64 uM); FA: 20 mM HEPES pH 7.5, 150 mM NaCl, 5 mM MgCl2, 0.08% Tween 20, 20% glycerol, 2 mM DTT, 5 nM DNA, 25 C; BLI: 25 mM HEPES pH 7.5, 150 mM NaCl, 5 mM MgCl2, 2 mM; conditions: protein: recombinant; (HisTrap purified); chain copies: 2; label: 5'-FAM on primer S8; 15 bp duplex, 5' overhang 16 nt on template (recessed primer 3' end)
MutL WT [4] = target: T1, MutL WT; experiment: fluorescence anisotropy; 3 mM ATP; FA: 20 mM HEPES pH 7.5, 150 mM NaCl, 5 mM MgCl2, 0.08% Tween 20, 20% glycerol, 2 mM DTT, 5 nM DNA, 25 C; BLI: 25 mM HEPES pH 7.5, 150 mM NaCl, 5 mM MgCl2, 2 mM; conditions: protein: recombinant, (HisTrap purified), chain copies: 2

B1: cryo-EM 3' resected DNA (dsDNA)
DNA 1: AAACAGGCTTAGGCTGGAGGATCAGCTTAGCTTAGAGTCATC
DNA 2: GATGACTCTAAGCTAAGCTGA
B1: binds (MutL WT [1]).

B2: 3' resected primer/template junction (dsDNA)
DNA 1: AAGTGTCTGTCGTTTTAAGGACGAAGGACTC
DNA 2: GAGTCCTTCGTCCTT
Work on B2 yielded a Kd (MutL WT [2]) of 290 ± 120 nM, a Kd (MutL H319A) of 4510 ± 1180 nM and a Kd (MutL H270A) of 1590 ± 230 nM. For the same binder, the binding result (MutL H270A+H319A) was “no binding” and the Kd (MutL WT [3]) was 650 ± 320 nM.

B3: 5' resected primer/template junction (dsDNA)
DNA 1: B2 DNA 1
DNA 2: AAAACGACAGACACTT
B3: no binding (MutL WT [4]; label: 3'-FAM on primer S7).

B4: blunt-ended DNA (dsDNA)
DNA 1: AAGTGTCTGTCGTTTT
DNA 2: AAAACGACAGACACTT
B4: no binding (MutL WT [4]; label: 3'-FAM on S7).
